According to patent US8221990B2, “Screening GPR12 receptor for substances having Nesfatin-1-like action, or which regulate Nesfatin-1 action” (Teijin Pharma Limited, priority 2007, dated 2012):

Target: T1, GPR12 (Mus musculus, UniProt P35412)
T1 construct: in which GPR12 was endogenously expressed; endogenous in cells; host or cells: NB41A3 cells (ATCC-CCL147), mouse brain neuroblastoma
T1 sequence (P35412 1-334): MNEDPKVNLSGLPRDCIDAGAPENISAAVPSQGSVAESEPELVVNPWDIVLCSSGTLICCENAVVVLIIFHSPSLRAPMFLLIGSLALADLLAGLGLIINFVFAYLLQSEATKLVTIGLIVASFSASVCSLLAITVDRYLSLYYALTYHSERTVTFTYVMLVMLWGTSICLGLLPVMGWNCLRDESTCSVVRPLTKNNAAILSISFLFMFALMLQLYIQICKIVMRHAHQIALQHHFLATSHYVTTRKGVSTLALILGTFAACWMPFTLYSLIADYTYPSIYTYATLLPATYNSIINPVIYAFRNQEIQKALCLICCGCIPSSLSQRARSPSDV
Test: Expression of a CRE-reporter gene (pCRE-Luc luciferase) in NB41A3 cells expressing GPR12 endogenously
Type: cell-based
Details: NB41A3 cells transfected with pCRE-Luc, 10^-10 M, 16 hours
Method: NB41A3 cells (ATCC-CCL147), a cell strain derived from mouse brain neuroblastoma, in which GPR12 was endogenously expressed were used. The confluent NB41A3 cells were recovered in a 10-cm dish, plated onto 10 cm-dishes after dividing the cell colony in four quarters, and cultured for one day in Ham's F12K medium. The cells were transected with 5 μg of the reporter plasmid pCRE-Luc (Stratagene Corporation, Catalog No. 219074) in which TATA-BOX and luciferase were incorporated into downstream of CRE by a calcium phosphate method. The cells were washed with Ham's F12K medium 16 hours after the transfection. Ham's F12K medium containing no test substance (Vehicle), Ham's F12K medium containing 10^−10 M of Nesfatin-1 M30 (Mid-Segment: SEQ ID NO: 11), Ham's F12K medium containing 10^−10 M of a modified peptide M30_Ag-A (SEQ ID NO: 50) (M30_Ag-A), and Ham's F12K medium containing 10^−10 M of a modified peptide M30_MSH-A (SEQ ID NO: 51) […] were added to the cells, and the resultant mediums were cultured under the conditions of 37° C. and 5% CO2 for 16 hours. After the culturing, the cells were washed twice with phosphate-buffered saline (PBS), lysed with 4 mL of lysis buffer (an aqueous solution containing 25 mM of glycylglicine (pH 7.8), 15 mM of magnesium sulfate, 4 mM of glycol ether diaminetetraacetic acid (EGTA), 1 mM of dithiothreitol (DTT), and 1% (volume/volume) of Triton X-100). […] After adding 200 μL of 0.2 mM of d-luciferin to the diluted cell lysate, the luminescence was measured for 10 seconds by a luminometer, and the amount of luminescence (units) was determined. Further, the amount of protein in each cell lysate was measured by BCA™ Protein Assay Kit-Reducing Agent Compatible (Pearce, Catalog No. 23250), and the value obtained by dividing the amount of luminescence (units) by the amount of protein (μg) in a sample was determined as a luciferase activity. […] The cells were cultured for 16 hours, and then the level of luciferase activity was also determined.

## Nesfatin-1M30: mid-segment of Nesfatin-1, human-derived Nesfatin-1M30, SEQ ID NO: 11 (PDTGLYYDEYLKQVIDVLETDKHFREKLQK; listed as Homo sapiens)
  luciferase activity compared with Vehicle: enhanced
